The values that follow come from patent US20030198634A1 (published 2003).

In one assay the target is T1, human lymphotoxin (TNFβ) (human, UniProt P01374 35-205, limits assumed).
T1 sequence (looked up): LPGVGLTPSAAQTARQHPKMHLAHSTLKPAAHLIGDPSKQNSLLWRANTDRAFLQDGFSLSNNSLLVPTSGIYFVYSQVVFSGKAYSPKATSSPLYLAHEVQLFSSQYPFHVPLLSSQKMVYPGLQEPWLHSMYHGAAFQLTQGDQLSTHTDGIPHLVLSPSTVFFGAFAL
Put plainly: cell-based or functional assay.

The target of assay [1] is human tumor necrosis factor-α (TNFα) (human, UniProt P01375 77-233). Put plainly: cell-based or functional assay.
Sequence of human tumor necrosis factor-α (TNFα) (P01375 77-233): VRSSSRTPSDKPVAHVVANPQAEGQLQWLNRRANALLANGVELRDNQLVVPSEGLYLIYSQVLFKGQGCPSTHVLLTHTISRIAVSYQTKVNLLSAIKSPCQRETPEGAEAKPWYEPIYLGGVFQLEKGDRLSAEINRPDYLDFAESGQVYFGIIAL

“p55-sf2 (p55 TNF receptor/IgG1 heavy chain single fusion with truncated light chain JCK) (from UniProt P19438) (Fc fusion)” came in with an amount needed for the same degree of inhibition of TNFβ, against p75P-sf2 (fold against p75P-sf2) in the assay with human lymphotoxin (TNFβ) of 3.

B1: chimeric mouse/human IgG1 anti-platelet mAb (7E3) (antibody, INN chains, looked up, V domains shown)
VH: EVQLQQSGTVLARPGASVKMSCEASGYTFTNYWMHWVKQRPGQGLEWIGAIYPGNSDTSYIQKFKGKAKLTAVTSTTSVYMELSSLTNEDSAVYYCTLYDGYYVFAYWGQGTLVTVSA
VL: EIVLTQSPVTLSVTPGDSVSLSCRASRDISNNLHWFQQTSHESPRLLIKYASQSMSGIPSRFSGSGSGTDFTLSINSVETEDFGMYFCQQTNSWPYTFGGGTKLEIK
modifications: IgG1
In assay [1], B1 showed an IL-6 in supernatant of FS-4 fibroblasts (ng/ml), rhTNF 0.3 ng/ml, antibody 4 µg/ml (no antibody: 1.36) of 1.6 ng/mL; an IL-6 in supernatant of FS-4 fibroblasts (ng/ml), rhTNF 1.5 ng/ml, antibody 4 µg/ml (no antibody: 2.00) of 1.96 ng/mL; an IL-6 in supernatant of FS-4 fibroblasts (ng/ml), rhTNF 7.5 ng/ml, antibody 4 µg/ml (no antibody: 2.56) of 2.16 ng/mL.

B2: p75-sf2 (complete extracellular domain of p75 fused to the IgG1 heavy chain) (Fc fusion)
chain: QLPAQVAFTPYAPEPGSTCRLREYYDQTAQMCCSKCSPGQHAKVFCTKTSDTVCDSCEDSTYTQLWNWVPECLSCGSRCSSDQVETQACTREQNRICTCRPGWYCALSKQEGCRLCAPLRKCRPGFGVARPGTETSDVVCKPCAPGTFSNTTSSTDICRPHQICNVVAIPGNASMDAVCTSTSPTRSMAPGAVHLPQPVSTRSQHTQPTPEPSTAPSTSFLLPMGPSPPAEGSTGDGTLVTVSS
Turning to B2, in the assay with human lymphotoxin (TNFβ), the “amount needed for the same degree of inhibition of TNFβ, against p75P-sf2” value stood at 3 fold against p75P-sf2.

B3: p75P-sf2 (p75 amino acids 1-182 fused to the IgG1 heavy chain; lacks the C-terminal 53 amino acids of the p75 extracellular domain) (Fc fusion)
chain: QLPAQVAFTPYAPEPGSTCRLREYYDQTAQMCCSKCSPGQHAKVFCTKTSDTVCDSCEDSTYTQLWNWVPECLSCGSRCSSDQVETQACTREQNRICTCRPGWYCALSKQEGCRLCAPLRKCRPGFGVARPGTETSDVVCKPCAPGTFSNTTSSTDICRPHQICNVVAIPGNASMDAVCTSTSDGTLVTVSS
In the case of B3, in assay [1], the “IC50 = concentration of fusion protein required to inhibit 2 ng/ml (39.2 pM) TNFα by 50%, WEHI 164 cytotoxicity assay” value is 70 pM and the “Molar ratio fp: TNFα at IC50, WEHI 164 cytotoxicity assay” value stood at 1.8.
